Laboratory results as given in IntAct's records for PubMed 24141193.

B1: Protein kinase doc (Escherichia phage P1), Q06259 (parent)
chain: MRHISPEELIALHDANISRYGGLPGMSDPGRAEAIIGRVQARVAYEEITDLFEVSATYLVATARGHIFNDANKRTALNSALLFLRRNGVQVFDSPELADLTVGAATGEISVSSVADTLRRLYGSAE

Variants of: B1
Conditions: with eftu1_ecoli tufA

Row | Variant | effect of a mutation on the interaction
1 | MRHISPEELIALHDANISRYGGLPGMSDPGRAEAIIGRVQARVAYEEITDLFEVSATYLVATAGGHIFNDANKRTALNSALLFLRRNGVQVFDSPELADLTVGAATGEISVSSVADTLRRLYGSAE [R64G] | disrupting interaction strength
